Test results from article PMC8567585.

What follows are substances tested against T1, His-OsbR (Chromobacterium violaceum ATCC 12472) (UniProt Q7NR79) (assay: EMSA). Settings: EMSA with 32P-labeled PCR probes and reduced His-OsbR; buffer, salt, pH and temperature not given (refers to earlier papers); CHP pretreatment at room ….
T1 sequence: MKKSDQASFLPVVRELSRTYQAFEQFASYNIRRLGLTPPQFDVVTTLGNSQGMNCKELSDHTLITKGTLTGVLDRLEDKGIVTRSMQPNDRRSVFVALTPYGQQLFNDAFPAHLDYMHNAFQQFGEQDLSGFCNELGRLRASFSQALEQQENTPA

| Substance | binding |
| --- | --- |
| GACCATACTAGACAGCTACGCCACCTTCAGCGCCATCGACCGCCACAGCGAAAGCCGCCAGAAACATCCCTTCGTCGCGCAATTGCTGCGCCGCTATCCGCAAATCACCACGCTG (double strand) [CV_0208 coding region] | no binding |
| GACCAAGTGATAGACGCCGGCACGCTGCGCGCGGTGTACGGCGTGAACGGCCGGGTGGAGCGCTGCACGCAGGGCGTGCCCCACGTGCTGGTGGACGGCCTGGCCGCAGGCTGAGCGCCGCGGCGGGGCGGCGCTCGCCGTCCCGCCCGATTGAAATCTTCACTCCCTCGCAAGAATGCGATTGAAATTGATATTCAATCGCATTTATGATGTCAGCCTCCGCTCAGGAGCCGCCCAGGCGGCCAAAACCAATAACAGGCAGACATCCTCATGACCGAGAAGCTTTAGGCC (double strand) [cbaF promoter] | no binding |
| CCTCGTAAAAGCGGATGGCGCGGGTGGTGATGTCGAACTCCTGCGCGAGTTCGGTGATGTTGAAAACCTGTTCGCCCATGCGTCTGTCCCTTTATCTTCCCGCTGCGGCCACGCGCGCCACAGTCGGGTGCTTTTGCATTCATTGTCTGTTGACGTTGACGTAAACGTCAAGTTATCGTGATCGAAAGTAGAGCAAACAGTCCAGGAGAAGCAGATGAGCCAGAAAATCGGCGTGGTGGGCGCGGGCACGATGGGCAACGGCATCGCCCAGGTCTTCGCGATGAAGGGTTTCGACG (double strand) [CV_2087 promoter] | binds |
| ATCGGGATGCCCAGCACCGCGAACATCATCCAGACCATGAAGCAGAGGGTGAAAGCCAGCGTGCTGCTGGCCAGCACGCTGTAGCGTTTGAATGTCGGGGAAGTCATGGCGCCATATCCATGGAGTGGTCATGGCTACCACGATAAGCGACGGCGGCGCGCGCCGATATTCGTCTGTCGCAGGACTGTCAGTCTGCCAACGGACGAGGCGGATTAACCCTTACGGCTGGCGCCGGCTACTCCCAATGGGGGAGAGTCA (double strand) [narK1 promoter] | no binding |
| TTGGATCCTGCCGGAGCGGAATGCAACTGGACGATATCGCCGGATTGAGGCAGTCGCTGTGCGATCTGCGCGACCGGCTGCTGCAATGAACCCGTCAGGGTTTTGATAGTTAGATAGTGCACTATTAAATAGCTCATTATTTTAATCGCAACGGCGTCAAGCCAAGGAGAGCCAGATGAACCCTCTGCAAAAAGTACTGTATACCGCCGAAGCCACCGCCTGCAGTAAT (double strand) [ohrA promoter] | binds |
| CTCGCTGGCCGATCTGGGACGCGGCCCGGTGCGGGCGGCCGCCTGATCGCGGTTTCGCGCCCGCTTGGCGCGGGCGCGTCGCGGTTCCGCATAATAATAAATTGCTTGCAATTAAATAGTGCACTATTTATTATGCGGCCATGGAACAAGAAAACACGTGCCCGCCGCAGGACGCGCTTTTGCGGCTGGACCAGCAACTCTGCTTCGCGCTGTATTCCGCC (double strand) [ohrR promoter] | no binding |

These substances were tested against His-OsbR (oxidative stress response and biofilm formation regulator, CV_3905, MarR family) (Chromobacterium violaceum) (assay: non-reducing SDS-PAGE (covalent dimers after oxidation); purified His-OsbR incubated with the oxidants TBHP, CHP or H2O2 at 0.1 and 1 mM, room temperature, alkylated with 100 mM NEM for 2 h, non-reducing SDS-PAGE, Coomassie staining; monomer to covalent dimer). Settings: not given.

| stoichiometry N | Substance |
| --- | --- |
| 2 | His-OsbR (oxidative stress response and biofilm formation regulator, CV_3905, MarR family) (natural protein) |
